First the molecules themselves.
B1: CarDNt, the 179-residue N-terminal domain of Myxococcus xanthus CarD (in pKT25) [Myxococcus xanthus] / Mxβ_(19–148), M. xanthus RNA polymerase β subunit fragment spanning residues 19 to 148 (in pUT18C) [Myxococcus xanthus] (parent complex)
chain 1: MPEGSASLQLAVGDRVVYPNQGVCRVSAIDVKEVAGQKLTFVTMRREEDGAVVMVPEGKVLAIGVRKVASAEDVEAIFTFLRSDSDKADLDWKQRARTNLDRMTQGGIMGLAEVVKGLQVLSELRPLPTKERELYDNARHLLVTEVAAALGTAEVNAEDAIDIVLFPPGRERPKRTAAE
chain 2: AKIIDIPNLINIQKQSYEKFLQADIAADKREDLGLQGVFKSVFPIRDFNETSSLEFVSYHLERPKYDVDECHQRGMTYSAPIKVVVRLVVWDKDEETGAQSIRDVKEQEVYFGEIPLMTQNGTFIINGTE

The variants in the first test derive from B1. Description: BACTH analysis (β-Gal activity); Mxβ19–148 mutants in pUT18C; CarDNt in pKT25; mean and standard error of three independent experiments; parent: 2.6e+03; read off a plot.
Regarding chain 2 K106A, the response is ~2100. Turning to chain 2 E107A, the response is ~90.

Regarding chain 2 D104A, the response was ~1800.

Regarding chain 2 V105A, the response was ~610.

Another test covers variants of B1. The test is described as follows: BACTH analysis (β-Gal activity); CarDNt mutants in pKT25; Mxβ19–148 in pUT18C; mean and standard error of three independent experiments; parent: 2.7e+03; read off a plot.
With chain 1 M54A, the response is ~130. As to chain 1 P56A, the response is ~230. For chain 1 F41A, the response is ~130.
